Results reported in article PMC9849366, “Evolutionary fine-tuning of residual helix structure in disordered proteins manifests in complex structure and lifetime” (Communications Biology, 2023).
Primed or numbered codes have the meaning given here. FITC′ = fluorescein isothiocyanate

B1: RCD1-RST(499-572) (domain or fragment, Arabidopsis thaliana, UniProt Q8RY59 499-572, looked up)
chain: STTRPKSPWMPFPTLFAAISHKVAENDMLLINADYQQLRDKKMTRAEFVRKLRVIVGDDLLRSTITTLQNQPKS
notes: also called AtRCD1-RST; αα-hub RCD1-RST; source: E. coli BL21(DE3), purified (Source 15S cation exchange, Superdex 75 SEC)
B2: DREB2A(244-272)-R266G (peptide, UniProt O82132 244-272, looked up)
chain: WPNDVDQSHLDSSDMFDVDELLGDLNGDD
notes: Expressed as GST-tagged peptide; 13C,15N-labelled for NMR, unlabelled for ITC; also called DREB2A-R266G; source: E. coli BL21(DE3), purified (Glutathione Sepharose 4B, reversed phase Vydac C18)
B3: FITC-DREB2A(246-272) D267L (peptide, UniProt O82132 246-272, looked up)
peptide: {FITC′}-NDVDQSHLDSSDMFDVDELLRLLNGDD-NH2
modifications: also: acetylation stated, site not given here
notes: also called fluorescently labeled DREB2A(244-272)-D267L; DREB2A-D267L; source: synthetic peptide, bought: TAG Copenhagen A/S (>98% purity)
B4: FITC-DREB2A(246-272) R266G (peptide, UniProt O82132 246-272, looked up)
peptide: {FITC′}-NDVDQSHLDSSDMFDVDELLGDLNGDD-NH2
modifications: also: acetylation stated, site not given here
notes: also called fluorescently labeled DREB2A(244-272)-R266G; DREB2A-R266G; source: synthetic peptide, bought: TAG Copenhagen A/S (>98% purity)
B5: FITC-DREB2A(246-272) WT (peptide, UniProt O82132 246-272, looked up)
peptide: {FITC′}-NDVDQSHLDSSDMFDVDELLRDLNGDD-NH2
modifications: also: acetylation stated, site not given here
notes: also called fluorescently labeled DREB2A(244-272)-WT; source: synthetic peptide, bought: TAG Copenhagen A/S (>98% purity)
B6: DREB2A(244-272)-D267L (peptide, UniProt O82132 244-272, looked up)
chain: WPNDVDQSHLDSSDMFDVDELLRLLNGDD
notes: Expressed as GST-tagged peptide; 13C,15N-labelled for NMR, unlabelled for ITC; also called DREB2A-D267L; source: E. coli BL21(DE3), purified (Glutathione Sepharose 4B, reversed phase Vydac C18)
B7: FITC-DREB2A(246-272) D267A (peptide, UniProt O82132 246-272, looked up)
peptide: {FITC′}-NDVDQSHLDSSDMFDVDELLRALNGDD-NH2
modifications: also: acetylation stated, site not given here
notes: also called DREB2A-D267A; DREB2A(244-272) variant D267A; source: synthetic peptide, bought: TAG Copenhagen A/S (>98% purity)
B8: FITC-DREB2A(246-272) R266A (peptide, UniProt O82132 246-272, looked up)
peptide: {FITC′}-NDVDQSHLDSSDMFDVDELLADLNGDD-NH2
modifications: also: acetylation stated, site not given here
notes: also called DREB2A-R266A; DREB2A(244-272) variant R266A; source: synthetic peptide, bought: TAG Copenhagen A/S (>98% purity)
B9: DREB2A(244-272)-WT (peptide, UniProt O82132 244-272, looked up)
chain: WPNDVDQSHLDSSDMFDVDELLRDLNGDD
notes: Expressed as GST-tagged peptide; 13C,15N-labelled for NMR, unlabelled for ITC; also called DREB2A-WT; source: E. coli BL21(DE3), purified (Glutathione Sepharose 4B, reversed phase Vydac C18)

Experiments:
[1] = target: DREB2A 244-272 (Arabidopsis thaliana) (UniProt O82132); assay: stopped-flow kinetics; details: cited from earlier work
DREB2A(244-272)-WT = target: B9; assay: ITC; 9-12 µM DREB2A(244-272) peptide in the cell, 92-100 µM RCD1-RST(499-572) in the syringe; 25 °C, 50 mM HEPES pH 7.4, 300 mM NaCl; one set of sites model; n = 3; details: both partners purified
RCD1-RST(499-572) [2] = target: B1; assay: as above; details: both partners purified
RCD1-RST(499-572) [3] = target: B1; assay: stopped-flow fluorescence spectroscopy; association kinetics; 10 °C, 50 mM HEPES pH 7.4, 150 mM NaCl; details: both partners purified
RCD1-RST(499-572) [4] = target: B1; assay: stopped-flow fluorescence spectroscopy; association and displacement (dissociation) kinetics; 10 °C, 50 mM HEPES pH 7.4, 500 mM NaCl; details: both partners purified
RCD1-RST(499-572) [5] = target: B1; assay: stopped-flow fluorescence spectroscopy; 0.1 µM FITC-DREB2A peptide mixed with 1-6 µM RCD1-RST(499-572) (kon); preformed complex 1:0.1 µM displaced with 5-60 µM unlabelled DREB2A(244-272) (koff); Kd from the rate constants; 10 °C, 50 mM HEPES pH 7.4, 100 mM NaCl; details: both partners purified
RCD1-RST(499-572) [6] = target: B1; assay: stopped-flow fluorescence spectroscopy; association and displacement (dissociation) kinetics; 10 °C, 50 mM HEPES pH 7.4, 800 mM NaCl; details: both partners purified
RCD1-RST(499-572) [7] = target: B1; assay: stopped-flow fluorescence spectroscopy; association and displacement (dissociation) kinetics; 10 °C, 50 mM HEPES pH 7.4, 300 mM NaCl; details: both partners purified
RCD1-RST(499-572) [8] = target: B1; assay: stopped-flow fluorescence spectroscopy; 0.1 µM FITC-DREB2A peptide mixed with 1-6 µM RCD1-RST(499-572) (kon); preformed complex 1:0.1 µM displaced with 5-60 µM unlabelled DREB2A(244-272) (koff); Kd from the rate constants; 10 °C, 50 mM HEPES pH 7.4, 100 mM NaCl; details: both partners purified; remark: listed apart in the source
RCD1-RST(499-572) [9] = target: B1; assay: stopped-flow fluorescence spectroscopy; association and displacement (dissociation) kinetics; 10 °C, 50 mM HEPES pH 7.4, 200 mM NaCl; details: both partners purified
RCD1-RST(499-572) [10] = target: B1; assay: stopped-flow fluorescence spectroscopy; association kinetics; 10 °C, 50 mM HEPES pH 7.4, 50 mM NaCl; details: both partners purified

| Kd (RCD1-RST(499-572) [2]) [nM] | kon (RCD1-RST(499-572) [3]) [M⁻¹ s⁻¹] | kon (RCD1-RST(499-572) [4]) [M⁻¹ s⁻¹] | koff (RCD1-RST(499-572) [6]) [s⁻¹] | kon (RCD1-RST(499-572) [6]) [M⁻¹ s⁻¹] | kon (RCD1-RST(499-572) [7]) [M⁻¹ s⁻¹] | kon (RCD1-RST(499-572) [9]) [M⁻¹ s⁻¹] | Molecule | kon (RCD1-RST(499-572) [5]) [M⁻¹ s⁻¹] | Kd (RCD1-RST(499-572) [8]) [nM] | koff (RCD1-RST(499-572) [8]) [s⁻¹] | kon (RCD1-RST(499-572) [8]) [M⁻¹ s⁻¹] | other results |
| --- | --- | --- | --- | --- | --- | --- | --- | --- | --- | --- | --- | --- |
|  |  |  |  |  |  |  | RCD1 499-572 (from UniProt Q8RY59) |  |  |  |  | Kd [1]: 0.8 nM |
|  |  |  |  |  |  |  | B1 |  |  |  |  | dH (DREB2A(244-272)-WT): -16.3 kcal/mol; stoichiometry N (DREB2A(244-272)-WT): 0.84 |
| 369 |  |  |  |  |  |  | B2 |  |  |  |  |  |
|  | 1.49e+08 | 4.5e+07 | 0.223 | 2.2e+07 | 8.1e+07 | 1.42e+08 | B3 | 1.78e+08 | 0.13 | 0.03 | 2.35e+08 |  |
|  | 1.75e+08 | 2.1e+07 | 5.29 | 1.06e+07 | 5.59e+07 | 1.2e+08 | B4 | 2.06e+08 | 3 | 0.7 | 2.3e+08 | kon (RCD1-RST(499-572) [10]): 4.13e+08 M⁻¹ s⁻¹ |
|  | 1.18e+08 | 2.3e+07 | 1.78 | 8e+06 | 3.6e+07 | 4.5e+07 | B5 | 2.45e+08 |  |  |  | koff (RCD1-RST(499-572) [4]): 0.94 s⁻¹; koff (RCD1-RST(499-572) [5]): 0.18 s⁻¹; koff (RCD1-RST(499-572) [7]): 0.53 s⁻¹; kon (RCD1-RST(499-572) [10]): 3.35e+08 M⁻¹ s⁻¹; koff (RCD1-RST(499-572) [9]): 0.4 s⁻¹ |
| 66 |  |  |  |  |  |  | B6 |  |  |  |  |  |
|  |  |  |  |  |  |  | B7 |  | 0.32 | 0.07 | 2.22e+08 |  |
|  |  |  |  |  |  |  | B8 |  | 1.5 | 0.383 | 2.46e+08 |  |
| 84 |  |  |  |  |  |  | B9 |  |  |  |  |  |
